The values below come from paper doi:10.1101/2021.01.21.427698.

In the experiment the target is T1, human SEPT2 with a TEV-cleavable N-terminal His6-tag (human), Q15019.
T1 chain: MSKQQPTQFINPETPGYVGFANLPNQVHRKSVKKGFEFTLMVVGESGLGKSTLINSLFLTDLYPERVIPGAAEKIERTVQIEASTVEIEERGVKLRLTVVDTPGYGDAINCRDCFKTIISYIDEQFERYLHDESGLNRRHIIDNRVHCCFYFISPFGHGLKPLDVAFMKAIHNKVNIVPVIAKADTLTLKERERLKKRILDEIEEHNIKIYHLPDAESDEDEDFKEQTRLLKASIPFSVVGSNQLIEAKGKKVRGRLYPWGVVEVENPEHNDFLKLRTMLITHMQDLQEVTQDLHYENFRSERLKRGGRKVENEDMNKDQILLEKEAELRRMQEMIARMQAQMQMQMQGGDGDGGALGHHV
The note with it: remark: other sources report otherwise.

B1: full-length human SEPT7 (untagged, as in the octamers), Q16181 1-437 (natural protein)
chain: MSVSARSAAAEERSVNSSTMVAQQKNLEGYVGFANLPNQVYRKSVKRGFEFTLMVVGESGLGKSTLINSLFLTDLYSPEYPGPSHRIKKTVQVEQSKVLIKEGGVQLLLTIVDTPGFGDAVDNSNCWQPVIDYIDSKFEDYLNAESRVNRRQMPDNRVQCCLYFIAPSGHGLKPLDIEFMKRLHEKVNIIPLIAKADTLTPEECQQFKKQIMKEIQEHKIKIYEFPETDDEEENKLVKKIKDRLPLAVVGSNTIIEVNGKRVRGRQYPWGVAEVENGEHCDFTILRNMLIRTHMQDLKDVTNNVHYENYRSRKLAAVTYNGVDNNKNKGQLTKSPLAQMEEERREHVAKMKKMEMEMEQVFEMKVKEKVQKLKDSEAELQRRHEQMKKNLEAQHKELEEKRRQFEDEKANWEAQQRILEQQNSSRTLEKNKKKGKIF
Turning to B1, the stoichiometry N came to 1.
